We go through one substance from patent US11541086.

The target of this test is amyloid-beta oligomers prepared from synthetic Aβ1-42 (UniProt P05067). As to the kind of experiment: cell-based or functional assay.
UniProt P05067, sequence (P05067 672-713 limits assumed): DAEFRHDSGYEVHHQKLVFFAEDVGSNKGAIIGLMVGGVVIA

Substance “NUsc1 scFv expressed and secreted by neurons transduced with the AAV9 vector AAV-NUsc1” gave an AβO binding to dendrites in hippocampal neurons (NU4 immunoreactivity) of 50 % decrease.
